Assay results published in patent US20060177816A1, “Cellular RhoGTPase activation assay” (Abbott GmbH & Co. KG., priority 2005, published 2006).
Blank lines part the entries; values can stand above or below the molecule they belong to. alkaline phosphatase tag = alkaline phosphatase tag, N-terminal fusion

Tests used:
[1] = target: human Nogo receptor (hNgR) (human) (UniProt Q9BZR6); assay: cell-based or functional assay
Rho = assay: RBD assay (pulldown of GTP-bound Rho with GST-RBD beads, immunoblot); assay type: cell-based, human
Procedure: The HEK cells either remained unstimulated or were stimulated (e.g. with LPA or AP-Nogo-66) for a period of from 5 to 10 minutes after a 2-hour starvation period (by incubation with serum-free RPMI-Glutamax). HEK cells (1×10^6 per well) were cultured in 6-well plates (volume of mixture 1000 μl/well). Before the stimulation, a particular volume appropriate for the concentration of the AP-Nogo66 batch employed (e.g. 100 μl of medium was removed from each well and the volume was correspondingly made up again to 1000 μl with AP-Nogo66, to result in a defined final concentration of AP-Nogo66 on the cells. Following the stimulation, the AP-Nogo66 medium solution was completely removed by aspiration. The cells were then washed with ice-cold PBS (phosphate-buffered saline) and lyzed in 50 mM Tris, pH 7.5 (comprising NaCl (500 mM), EDTA (1 mM), MgCl2 […], 10% glycerol, NaF (5 mM), DTT (1 mM), 1% Nonidet P-40 in combination with the protease inhibitors PMSF (1 mM), leupeptin (1 μg/ml) and aprotinin (1 μg/ml)).
Cell lysates (e.g. from HEK293-RhoA and HEK293-RhoA/NgR/p75; 400 μg of total protein in each case) were incubated with 40 μg of the GST-RBD beads (comprising recombinant fusion protein composed of glutathione S-transferase and RBD with amino acids 7 to 89 of human rhotekin) at 4° C. for 1 hour. After the beads had been washed 3 times with lysis buffer, the bound protein (GTP-bound, biochemically active Rho) was analyzed by SDS-PAGE and immunoblotting. The immunoblotting was carried out with anti-Rho antibody and the visualization took place by incubation with a horseradish peroxidase-conjugated secondary antibody and chemiluminescence enhancer (ECL).
It was investigated, using the RBD assay described above, whether Rho is activated after stimulation of NgR with myelin proteins, such as Nogo-66, in HEK293-Rho cells which express NgR and p75 (HEK293-Rho/NgR/p75). The results are depicted in appended FIG. 5a.

[2] = system: HEK293-RhoA/NgR/p75 cells; assay: ACR (actin cytoskeletal rearrangement) assay with image analysis; assay type: cell-based, human
Procedure: 1×10^4 cells were transferred into microtiter plates with 96 wells two days before the stimulation. The cells were stimulated with a suitable reagent (e.g. LPA or AP-Nogo-66) in culture medium (RPMI-Glutamax) comprising 5% FCS. After a stimulation period of 5 to 10 minutes, the activation was stopped with cold PBS. The cells were fixed with 3-4% strength paraformaldehyde solution, permeabilized with PBS comprising 0.2% Triton X-100, and incubated with phalloidin Alexa 568 or 488 for 30-45 minutes. Incubation with DAPI additionally took place for 5 minutes for nuclear staining. The cells were visualized with the aid of an epifluorescence microscope (Axiovert 25). Fluorescence micrograms were recorded using a cooled Zeiss CCD camera.
HEK293-Rho/NgR/p75 cells were transferred into microtiter plates with 96 wells (Biocoat Poly D-Lysine Black Clear Plates from Becton Dickinson, Heidelberg, order number 356640). After a starvation period (cf. above) of 2 hours, the cells were preincubated with PI-PLC (1 U/ml) for 30 minutes or not treated. The cells were subsequently stimulated with LPA or AP-Nogo-66 or remained unstimulated. Fluorescence micrograms were obtained as described above. Representative appearances are depicted in FIG. 5b.
Fluorescence micrograms (FIG. 6a) obtained from an ACR assay carried out according to the invention (stimulation of HEK293-RhoA/NgR/p75 cells with 10 μg/ml AP-Nogo-66) were investigated with various high content screening systems, e.g. with the Atto Pathway HT image analysis system from BD Bioimages (Becton Dickinson) or the Discovery 1 from Molecular Devices, for changes in the cell morphology. […] The Pathway HT was used to determine the number of so-called cytoplasmic vertices (cytoplasmic vertices are a measure of changes in the cytoskeleton which describes inter alia the contraction of actin filaments and the formation of stress fibers). The result of this evaluation is depicted in FIG. 6c.
To analyze the reported morphological changes, 1×10^4 cells per well were seeded into 96-well plates, fixed, the actin filaments were stained with FITC-labelled Alexa Phalloidin and the nuclei were visualized with DAPI. The plates were subjected to our high-content screening (HCS) system, the Pathway HT (Becton Dickinson) and the corresponding image analysis software Attovision. Analyzing the perimeter of the actin cytoskeleton achieved the most significant difference when comparing stimulated with unstimulated samples. The perimeter of the actin cytoskeleton is calculated as “cytoplasmic verticies”, which is a measure for the number of turns or changes in direction that lines outlining the cell follow.

NgR = target: T1, NgR (Homo sapiens, UniProt Q9BZR6); assay: Preliminary experiments on functional activity of tagged Nogo66 ligands; conditions: not shown
T1 sequence (Q9BZR6 27-447): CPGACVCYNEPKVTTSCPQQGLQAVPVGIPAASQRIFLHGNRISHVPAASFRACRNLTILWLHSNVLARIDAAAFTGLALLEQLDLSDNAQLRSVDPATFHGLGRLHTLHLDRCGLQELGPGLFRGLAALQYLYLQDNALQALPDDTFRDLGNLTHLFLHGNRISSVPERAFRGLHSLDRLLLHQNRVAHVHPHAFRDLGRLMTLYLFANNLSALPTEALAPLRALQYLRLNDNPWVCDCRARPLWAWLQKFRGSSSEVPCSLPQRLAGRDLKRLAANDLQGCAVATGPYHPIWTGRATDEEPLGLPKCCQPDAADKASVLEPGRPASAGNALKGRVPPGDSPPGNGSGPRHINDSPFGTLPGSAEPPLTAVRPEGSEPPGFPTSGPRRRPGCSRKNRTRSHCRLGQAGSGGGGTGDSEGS

[3] = HEK293-RhoA/NgR/p75 cells, stimulated for 5 minutes

Molecule: L-alpha-lysophosphatidic acid [LPA, reference compound]
- Rho activation (Rho; [3]): rapid activation of Rho
- Rho activation (Rho; HEK wild-type cells, LPA stimulation (data not shown)): rapid activation of Rho

Molecule: C[C@@H](N)[C@H]1CC[C@H](C(=O)Nc2ccncc2)CC1 [Y-27632, reference compound]
- inhibition of AP-Nogo66 induced Rho-dependent cell rounding and shrinkage ([2]; 15 min pre-treatment before stimulation with 20 nM AP-Nogo66): abolished AP-Nogo66 induced Rho-dependent cell rounding and shrinkage in a dose-dependent manner
- IC50 for the inhibitory effect on the actin cytoskeletal rearrangement ([2]; 15 min pre-treatment before stimulation with 20 nM AP-Nogo66, no number given): ranges in the order of magnitude of what had described for this broadly used compound

Now from value to molecule, other results behind:

- maximal reduction of the average perimeter (cytoplasmic vertices) against untreated control cells, at 20 nM AP-Nogo66 [1]: 80 to 90%
Molecule: AP-Nogo66 (Nogo-66, comprising an N-terminal alkaline phosphatase Tag) (from UniProt Q9NQC3 1055-1120) (ligand)

- functional activity (NgR): functionally active
B1: AP-Nogo66: Nogo-66, comprising an N-terminal alkaline phosphatase Tag; NgR receptor ligand (protein)
chain: {alkaline phosphatase tag}-RIYKGVIQAIQKSDEGHPFRAYLESEVAISEELVQKYSNSALGHVNCTIKELRRLFLVDDLVDSLK
modifications: not fully specified
notes: Nogo-66, comprising an N-terminal alkaline phosphatase Tag; NgR receptor ligand
- Rho activation after release of NgR from the cell membrane (Rho; HEK293-RhoA/NgR/p75 cells treated with 1 U/ml PI-PLC 30 minutes before stimulation): no Rho activation
- Rho activation (Rho; [3]): induced Rho activity
- time to maximum of morphological changes ([2]; 20 nM AP-Nogo66): 15 min
- maximal reduction of the average perimeter (cytoplasmic verticies) in comparison to untreated control cells ([2]; 20 nM AP-Nogo66, 10 min stimulation, Attovision analysis): 80-90%
- time to morphological changes ([2]; 20 nM AP-Nogo66, onset of actin cytoskeletal rearrangement): ≤ 5 min
- morphological change of the cells after stimulation ([2]; 10 μg/ml AP-Nogo-66, mean cell length and cytoplasmic vertices): significant, optically analyzable morphological change
- morphological changes after PI-PLC treatment and stimulation ([2]; PI-PLC (1 U/ml) preincubation for 30 minutes): not observable

- functional activity (NgR): not
B2: GST-Nogo66: otherwise tagged Nogo66 (GST tag) (protein)
chain: RIYKGVIQAIQKSDEGHPFRAYLESEVAISEELVQKYSNSALGHVNCTIKELRRLFLVDDLVDSLK
modifications: not fully specified (N-terminus); also: GST tag, end not given here (dimerising)
